Four substances from article PMC7052140 can be followed below.

The target in assay [1] is Cyt1Aa E32Q activated toxin (Bacillus thuringiensis subsp. israelensis).
Assay [2] deals with Cyt1Aa E45Q activated toxin (Bacillus thuringiensis subsp. israelensis).
For assay [3], the target named is Cyt1Aa Q168E activated toxin (Bacillus thuringiensis subsp. israelensis).
Assay [4] concerns the target Cyt1Aa activated toxin, wild type (Bacillus thuringiensis subsp. israelensis) (UniProt P0A382). As to the kind of experiment: atomic force microscopy on supported lipid bilayers.

In assay [1], “Cyt1Aa E32Q activated toxin (domain or fragment)” came in with a fold reduction of cytotoxicity on HEK293 cells against the WT toxin of 2.4 fold. For “Cyt1Aa E45Q activated toxin (domain or fragment)”, the fold reduction of cytotoxicity on HEK293 cells against the WT toxin in assay [2] was 14 fold. In assay [3], “Cyt1Aa Q168E activated toxin (domain or fragment)” returned a cytotoxicity on HEK293 cells (LC50) above 30 µM. As for “Cyt1Aa activated toxin, wild type (from UniProt P0A382 1-249) (domain or fragment)”, in assay [4], the stoichiometry N was 56.

The term stoichiometry N denotes a count of units in the complex or per binding partner.
